# B1: Cavin-1 (natural protein, mouse (endogenous in NSC-34), UniProt O54724 1-392, looked up)
# chain: MEDVTLHIVERPYSGFPDASSEGPEPTQGEARATEEPSGTGSDELIKSDQVNGVLVLSLLDKIIGAVDQIQLTQAQLEERQAEMEGAVQSIQGELSKLGKAHATTSNTVSKLLEKVRKVSVNVKTVRGSLERQAGQIKKLEVNEAELLRRRNFKVMIYQDEVKLPAKLSVSKSLKESEALPEKEGDELGEGERPEDDTAAIELSSDEAVEVEEVIEESRAERIKRSGLRRVDDFKKAFSKEKMEKTKVRTRENLEKTRLKTKENLEKTRHTLEKRMNKLGTRLVPVERREKLKTSRDKLRKSFTPDHVVYARSKTAVYKVPPFTFHVKKIREGEVEVLKATEMVEVGPEDDEVGAERGEATDLLRGSSPDVHTLLEITEESDAVLVDKSDSD
# notes: Cavin-1, endogenous in NSC-34 cells, detected by western blot; source: endogenous, NSC-34 lysate (RIPA buffer)
# Biological target: the molecule itself
# Assay: reducing SDS-PAGE western blot; NSC-34 lysate, SDS-PAGE loading dye with 0.1 M DTT, 12% gel
protein,measurement,value
B1,stoichiometry N,2

# Source: PMC13064919, “Novel extracellular vesicle release pathway facilitated by toxic superoxide dismutase 1 oligomers” (Neurobiology of disease, 2026)
